Measurements reported in article PMC12347638, “Fungal Laccases with High and Medium Redox Potential: Is the T1 Center Potential a Key Characteristic of Catalytic Efficiency in Heterogeneous and Homogeneous Reactions?” (International Journal of Molecular Sciences, 2025).

Key:
purified protein [1] = substrate: CCn1c(=NN=c2sc3cc(S(=O)(=O)O)ccc3n2CC)sc2cc(S(=O)(=O)O)ccc21; assay: purified protein; assay type: biochemical, Metuloidea murashkinskyi; details: air-saturated 0.1 M Na-citrate-phosphate buffer, pH 5.5, 23 °C, O2 co-substrate, free enzyme
purified protein [2] = substrate: CCn1c(=NN=c2sc3cc(S(=O)(=O)O)ccc3n2CC)sc2cc(S(=O)(=O)O)ccc21; assay: purified protein; assay type: biochemical, Antrodiella faginea; details: air-saturated 0.1 M Na-citrate-phosphate buffer, pH 5.5, 23 °C, O2 co-substrate, free enzyme

B1: SmL (Lac2), Steccherinum murashkinskyi laccase (Metuloidea murashkinskyi) (protein)
chain: AQIGPVTDLHITNANISPDGFSRPAVLAGGTFPGPTIAGNTGDNFQITVFNDLTDPSMLTDTSIHWHGLFQKGTNWADGPAFVTQCPIITGQSFDYNFNVPGQAGTFWYHSHLSTQYCDGLRGPFVVYDPNDPNASLYDVDDDTTIITLADWYHTLAQQEPIGAAITADATLINGLGRSFTNTTASPLSVITVQSGKRYRMRLVSISCDPNYLFSIDGHDMTIIEVDGVNSQQLTVDQIQIFAAQRYSFVLNANQPVGNYWIRAQPNSGGQGFDGGINSAILRYEGATVEDPTTTAPTTFSNPLVETDLHPLADLGVPGQPFRGGADDPLVLNLAFANGRFSIDGVSFVPPTVPVLLQILSGAQNAQDLLPAGSVISLPSNSVIEVALPAGAAGGPHPFHLHGHNFAVVQSANNATPNYVNPIWRDTVSIGGTGDNVTIRFTTNNPGPWFLHCHIDWHLEAGFAIVFAEDIPDTASANPVPQAWSDLCPAYDQAHNISTATRQDFQILCICGILHVNFRQEERCGIS
notes: native secreted enzyme purified from culture liquid
Question: B1 was tested. Which Km (purified protein [1]) did it give?
Answer: Its Km is 71.7 ± 2.9 µM.

Question: And the kcat (purified protein [1])?
Answer: The kcat was 33.3 ± 1.4 s⁻¹.

Question: What about the kcat/Km (purified protein [1]) of the same protein?
Answer: The kcat/Km was 460000 M⁻¹ s⁻¹.

B2: AfL (LacA), Antrodiella faginea laccase (Antrodiella faginea) (protein)
chain: AIGPVADLKIVNANIQPDGFTRPAVLAGGTFPGPLIKGNKGDNFQLNVIDELENEDMLKSTSIHWHGFFQHGTNWADGPAFVNQCPITTGHSFLYNFHVPDQAGTFWYHSHLSTQYCDGLRGPMVVYDPHDPLKQLYDVDDESTVMTLADWYHTLARQEPPGPVTPDSTLINGLGRAPGQTTPSELAVLTVKRGTRYRIRLINISCEPNYHYSIDNHDLTVIEADGVSTQSLTVSSLTIFAGQRYSFILNANQPVGNYWIRAQPNDAADVTFNGGINSAILRYEGAPVAEPNTTAGPDNTPLLEVNIRPFVFTPVPGQPHAGGADFVKNLLFSFNGTNFQVDNVSFVPPTVPILLQILSGAHTAQDLMPAGSIIPLPKNAVIEFSMPGGVVGGGHPIHLHGHNFWVIRSANSSVYNYNDPVIRDVVNIGTTGDNVTIRFETNNPGPWFLHCHIDWHLDLGFAVVMAEDIPDAAAANPVPAAWNELCPLYDALTPGNQ
notes: as for B1
Question: B2 was tested. Which Km (purified protein [2]) did it give?
Answer: The Km was 4.9 ± 0.4 µM.

Question: What about the kcat (purified protein [2]) of the same protein?
Answer: The kcat was 32.7 ± 1.1 s⁻¹.

Question: What about the kcat/Km (purified protein [2]) of the same protein?
Answer: Its kcat/Km is 6.67e+06 M⁻¹ s⁻¹.
